Test results from US20250092426, “CAS ENDONUCLEASES AND RELATED METHODS” (Flagship Pioneering Innovations VII, LLC, published 2025).

Target: T1, CasEnd-10 (synthetic construct)
T1 chain: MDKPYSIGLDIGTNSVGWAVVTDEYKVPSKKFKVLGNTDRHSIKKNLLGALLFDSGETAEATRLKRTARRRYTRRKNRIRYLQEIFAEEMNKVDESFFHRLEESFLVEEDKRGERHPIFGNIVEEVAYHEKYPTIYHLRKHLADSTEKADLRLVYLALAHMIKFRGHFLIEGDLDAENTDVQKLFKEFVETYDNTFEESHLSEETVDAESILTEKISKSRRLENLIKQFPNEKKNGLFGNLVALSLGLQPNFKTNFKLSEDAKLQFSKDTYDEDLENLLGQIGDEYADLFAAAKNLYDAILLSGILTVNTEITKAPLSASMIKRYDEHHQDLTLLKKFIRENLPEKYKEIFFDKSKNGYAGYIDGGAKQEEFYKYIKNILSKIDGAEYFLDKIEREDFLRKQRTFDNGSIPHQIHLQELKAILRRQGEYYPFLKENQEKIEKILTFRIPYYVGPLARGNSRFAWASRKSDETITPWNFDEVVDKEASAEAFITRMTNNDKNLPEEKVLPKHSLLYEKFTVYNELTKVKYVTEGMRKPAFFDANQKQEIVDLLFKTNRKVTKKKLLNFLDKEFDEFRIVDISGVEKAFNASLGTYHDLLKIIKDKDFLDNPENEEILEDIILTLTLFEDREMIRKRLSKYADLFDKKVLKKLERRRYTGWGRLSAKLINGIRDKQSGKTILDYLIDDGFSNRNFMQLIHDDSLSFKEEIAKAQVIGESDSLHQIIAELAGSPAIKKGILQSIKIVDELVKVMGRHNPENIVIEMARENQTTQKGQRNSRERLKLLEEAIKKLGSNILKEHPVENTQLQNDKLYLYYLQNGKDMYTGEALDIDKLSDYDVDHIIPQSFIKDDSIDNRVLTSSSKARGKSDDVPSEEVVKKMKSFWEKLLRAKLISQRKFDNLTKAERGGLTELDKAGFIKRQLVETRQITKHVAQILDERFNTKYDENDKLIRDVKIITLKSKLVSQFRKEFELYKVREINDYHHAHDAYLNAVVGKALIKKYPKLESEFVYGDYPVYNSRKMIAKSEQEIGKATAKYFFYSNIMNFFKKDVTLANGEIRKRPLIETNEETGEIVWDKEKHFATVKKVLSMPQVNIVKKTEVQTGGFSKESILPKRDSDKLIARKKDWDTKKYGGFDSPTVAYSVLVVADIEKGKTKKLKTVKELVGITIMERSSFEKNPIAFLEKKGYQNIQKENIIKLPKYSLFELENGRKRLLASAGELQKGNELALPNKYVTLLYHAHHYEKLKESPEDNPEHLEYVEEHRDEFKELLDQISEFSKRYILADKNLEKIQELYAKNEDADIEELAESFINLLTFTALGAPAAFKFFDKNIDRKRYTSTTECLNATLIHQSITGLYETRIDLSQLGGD
Assay: cell_activity; +++; K562, second nick guide SEQ 380; PAM not stated
Description: The ability of the candidate endonucleases, including endonucleases 1-38 (CasEnds 1-38) (set forth in Table 1 and SEQ ID NOS: 1-38, respectively), to mediate target nucleic acid editing in cells was assessed by amplicon sequencing of the endogenous hemoglobin subunit beta (eHBB) gene, wherein the percent of amplicons displaying the intended edit is measured. The editing system is comprised of a template RNA (designed to introduce the Single Nucleotide Polymorphism), a second nick guide RNA, and a fusion protein consisting of retroviral reverse transcriptase and the individual subject Cas endonuclease.
Briefly, 250 ng of plasmid DNA encoding the subject fusion protein (containing one of the subject CasEnds), 250 ng each of plasmid DNA encoding the template RNA and the second nick guide RNA were added to 15 μL Lonza SF buffer containing 250,000 K562 cells. Nucleofection was mediated utilizing program FF-120-DA on a Lonza nucleofector. The day of nucleofection was marked as day 0. At day 3, the cells were harvested and subjected to lysis buffer treatment overnight. Genomic DNA was extracted and used for targeted amplicon sequencing to evaluate the performance of each Cas endonucleases based on their percent edit efficiencies.

B1: HBB template RNA ; HBB protospacer (ssRNA ; dsDNA)
RNA: CAUGGUGCACCUGACUCCUGGUUUUAGAGCUAGAAAUAGCAAGUUAAAAUAAGGCUAGUCCGUUAUCAACUUGAAAAAGUGGCACCGAGUCGGUGCACGGCAGACUUCUCUGCCGGAGUCAGGUGC
DNA 1: CATGGTGCACCTGACTCCTG
DNA 2: CAGGAGTCAGGTGCACCATG
**Q.** For B1, which activity is on record?
**A.** ≥ 100 % of reference
